Columns and labels:
[1] = target: T1, mouse CD73 expressed at the cell surface (mouse, UniProt Q61503 29-551); test: flow cytometry titration on a cell line expressing mouse CD73
T1 construct: whole, on cells; Recombinant cell line expressing mouse CD73; also called moCD73
T1 sequence (looked up): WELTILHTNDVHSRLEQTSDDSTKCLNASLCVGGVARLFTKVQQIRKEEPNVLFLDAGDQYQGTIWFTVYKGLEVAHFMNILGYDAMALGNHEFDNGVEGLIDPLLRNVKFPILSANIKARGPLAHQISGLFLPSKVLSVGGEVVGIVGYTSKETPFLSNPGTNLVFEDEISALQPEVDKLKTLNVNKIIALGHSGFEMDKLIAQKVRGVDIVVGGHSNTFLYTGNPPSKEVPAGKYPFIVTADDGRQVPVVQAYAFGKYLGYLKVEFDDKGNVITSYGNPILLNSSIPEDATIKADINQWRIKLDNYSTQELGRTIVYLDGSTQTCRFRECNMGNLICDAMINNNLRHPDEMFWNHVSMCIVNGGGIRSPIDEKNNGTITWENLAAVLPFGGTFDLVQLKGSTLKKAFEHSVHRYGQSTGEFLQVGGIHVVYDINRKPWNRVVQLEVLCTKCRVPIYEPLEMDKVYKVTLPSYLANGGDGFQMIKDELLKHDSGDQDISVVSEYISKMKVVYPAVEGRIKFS
Experimental: (§1) 10⁵ cells resuspended in PBS/0.2% BSA/0.02% NaN3 (named “staining buffer”) are distributed into round bottom 96W-microplates. Dose-range of anti-CD73 antibodies was added to the plates and cells are incubated for 45 min at 4° C. Cells were washed three times in staining buffer by spinning plates at 400 g for 3 min at 4° C. PE-coupled goat anti-mouse or goat anti-human IgG Fc fragment secondary antibodies (Beckman Coulter) diluted in staining buffer were added to the cells and plates are incubated for 30 additional minutes at 4° C. Cells were washed three times as described above and analyzed on an Accury C6 flow cytometer equipped with an HTFC plate reader.
(§2) Median of fluorescence vs. antibodies concentration was plotted on graphs and EC50 is calculated using GraphPad Prism program.

[2] = target: T2, human CD73 (ecto-5'-nucleotidase) expressed at the cell surface (human, UniProt P21589 27-549); test: flow cytometry titration on HEK-293T cells transfected with wild type human CD73
T2 construct: Used for huCD73-expressing recombinant cell lines, MDA-MB-231 cells (endogenous CD73), HEK-293T cells with wild type CD73, and primary T and B cells; also called huCD73; wild type CD73
T2 sequence: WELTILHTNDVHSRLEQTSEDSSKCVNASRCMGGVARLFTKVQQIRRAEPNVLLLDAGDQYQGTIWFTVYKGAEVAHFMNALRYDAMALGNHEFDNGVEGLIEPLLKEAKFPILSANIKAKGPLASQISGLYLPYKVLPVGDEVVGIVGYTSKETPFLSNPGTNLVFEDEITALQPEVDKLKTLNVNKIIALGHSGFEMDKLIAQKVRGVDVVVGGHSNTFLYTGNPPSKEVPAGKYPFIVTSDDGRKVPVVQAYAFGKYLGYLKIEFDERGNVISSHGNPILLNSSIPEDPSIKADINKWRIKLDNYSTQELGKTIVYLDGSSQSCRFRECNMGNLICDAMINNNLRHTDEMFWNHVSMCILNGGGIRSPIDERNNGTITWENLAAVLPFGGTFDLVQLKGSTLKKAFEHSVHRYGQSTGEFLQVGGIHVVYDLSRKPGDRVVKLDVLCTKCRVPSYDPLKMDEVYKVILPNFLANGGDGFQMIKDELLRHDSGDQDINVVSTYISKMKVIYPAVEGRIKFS
Experimental: Anti-CD73 antibodies are tested for their binding to each mutant by flow cytometry. A first experiment is performed to determine antibodies that lose their binding to one or several mutants at one concentration. To confirm a loss of binding, titration of antibodies is done on antibodies for which binding seemed to be affected by the CD73 mutations (1-0.1-0.01-0.001 μg/ml).

[3] = target: T3, cynomolgus CD73 expressed at the cell surface (cynomolgus); test: flow cytometry titration on cynomolgus-CD73-expressing cell line
T3 construct: whole, on cells; Recombinant cell line expressing cynomolgus CD73; also called cynoCD73
Experimental: as §1, §2

[4] = target: T4, recombinant human CD73-His extracellular domain protein, soluble dimer (human, UniProt P21589 27-547); test: SPR (Biacore T100, 25 °C), antibody captured on Protein-A, soluble dimeric CD73 injected 1.23 to 300 nM, 1:1 kinetic model, bivalent affinity
T4 construct: also called huCD73 protein; human recombinant soluble dimeric CD73
T4 sequence: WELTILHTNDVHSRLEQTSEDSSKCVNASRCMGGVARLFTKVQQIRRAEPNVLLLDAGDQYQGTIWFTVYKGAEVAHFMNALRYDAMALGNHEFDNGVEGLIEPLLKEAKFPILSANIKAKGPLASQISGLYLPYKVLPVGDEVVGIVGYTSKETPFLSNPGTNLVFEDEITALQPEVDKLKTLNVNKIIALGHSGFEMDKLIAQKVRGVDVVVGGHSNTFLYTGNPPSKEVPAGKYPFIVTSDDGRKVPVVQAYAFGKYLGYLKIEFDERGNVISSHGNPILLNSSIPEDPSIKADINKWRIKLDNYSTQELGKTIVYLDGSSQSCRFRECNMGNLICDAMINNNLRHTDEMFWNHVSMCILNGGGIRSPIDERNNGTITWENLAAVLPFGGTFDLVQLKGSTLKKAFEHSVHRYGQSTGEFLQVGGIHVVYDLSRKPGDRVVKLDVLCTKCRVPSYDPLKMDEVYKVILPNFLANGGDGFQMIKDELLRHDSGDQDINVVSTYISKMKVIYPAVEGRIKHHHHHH
Experimental: SPR measurements were performed on a Biacore T100 apparatus (Biacore GE Healthcare) at 25° C. In all Biacore experiments HBS-EP+(Biacore GE Healthcare) and NaOH 10 mM served as running buffer and regeneration buffer respectively. Sensorgrams were analyzed with Biacore T100 Evaluation software. Protein-A was purchase from (GE Healthcare). Human soluble dimeric CD73 proteins were cloned, produced and purified at Innate Pharma.
Protein-A proteins were immobilized covalently to carboxyl groups in the dextran layer on a Sensor Chip CMS. The chip surface was activated with EDC/NHS (N-ethyl-N′-(3-dimethylaminopropyl) carbodiimide hydrochloride and N-hydroxysuccinimide (Biacore GE Healthcare). Protein-A was diluted to 10 μg/ml in coupling buffer (10 mM acetate, pH 5.6) and injected until the appropriate immobilization level was reached (i.e. 2000 RU). Deactivation of the remaining activated groups was performed using 100 mM ethanolamine pH 8 (Biacore GE Healthcare).
Affinity study was carried out according to a standard Capture-Kinetic protocol recommended by the manufacturer (Biacore GE Healthcare kinetic wizard). Serial dilutions of human recombinant soluble dimeric CD73 proteins, ranging from 1.23 to 300 nM were sequentially injected over the captured anti-CD73 antibodies and allowed to dissociate for 10 min before regeneration. […]

B1: antibody 7H10 (antibody, human IgG1, V domains shown)
VH: DVQLQESGPGLVKPSQSLSLTCTVTGYSITSDYAWNWIRQFPGNKLEWMGYIIYSGSTSYNPSLNSRISITRDTSKNQFFLQLNSVTTEDTATYYCAREAYLYFDYWGQGTTLTVSS
VL: DIQMTQTTSSLSASLGDRVTISCRASQDINNYLNWYQQKPDGTVKLLIYYTSRLHSGVPSRFSGSGSGTDYSLTISNLEREDVATYFCQQGNTLPWTFGGGTKLEIK
In the case of B1, the binding result [1] is reported as “no binding (tested: 10 µg/ml)”, the “EC50 (read off the curve)” value [2] is reported as ~0.2 µg/mL and the EC50 [3] is reported as 0.335 µg/mL. It also gave a Kd [4] of 0.527 nM.

— patent US20190225703A1 (INNATE PHARMA, published 2019)
